Results on two sequences are retold here after patent publication US20100076060.

The target of data set [1] is T1, 4-1BB (CD137) extracellular portion (Mus musculus) (UniProt P20334).
T1 sequence: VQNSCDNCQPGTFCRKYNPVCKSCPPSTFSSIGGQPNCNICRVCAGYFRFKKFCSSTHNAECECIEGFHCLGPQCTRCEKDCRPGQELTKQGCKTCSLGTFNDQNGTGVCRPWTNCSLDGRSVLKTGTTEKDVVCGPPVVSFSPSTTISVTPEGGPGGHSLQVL
Nature of the data set: filter. The conditions noted are these: 2'-F pyrimidines.

Data set [2] addresses 4-1BB (CD137) extracellular portion (Homo sapiens) (UniProt Q07011). Put plainly: filter. The conditions noted are these: 2'-F pyrimidines; alternating mouse/human selection pool.

4-1BB (CD137) extracellular portion (Homo sapiens), sequence (Q07011 24-186): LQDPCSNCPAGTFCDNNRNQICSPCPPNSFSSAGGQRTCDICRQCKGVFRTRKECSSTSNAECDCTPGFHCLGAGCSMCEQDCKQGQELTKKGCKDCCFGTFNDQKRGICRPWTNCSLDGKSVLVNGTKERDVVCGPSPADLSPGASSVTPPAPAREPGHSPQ

As usually defined, the Kd is the constant that tells how readily two partners part at equilibrium. Lower therefore signals higher affinity. With “GGGAGAGAGGAAGAGGGAUGGGNNNNNNNNNNNNNNNNNNNNNNNNNNNNNNNNNNNNNNNNCAUAACCCAGAGGUCGAUAGUACUGGAUCCCCCC [mouse 4-1BB selection round 12 pool]”, in data set [1] (round 12 pool), the Kd turned out to be 50 nM.

For “GGGAGAGAGGAAGAGGGAUGGGNNNNNNNNNNNNNNNNNNNNNNNNNNNNNNNNNNNNNNNNCAUAACCCAGAGGUCGAUAGUACUGGAUCCCCCC [mouse/human 4-1BB alternating selection final pool]”, the Kd in data set [2] was 23 nM; in data set [1] (alternating mouse/human selection pool), 200 nM.
